Data as given in PMC2777755.
Where two headings read alike, the source gives them in different places.

Key:
[1] = biological target: Fus3 (Saccharomyces cerevisiae) (UniProt P16892); details: cited from earlier work
[2] = biological target: Kss1 (Saccharomyces cerevisiae) (UniProt P14681); details: cited from earlier work
[3] = biological target: Fus3 (Saccharomyces cerevisiae) (UniProt P16892); details: cited from earlier work; remark: listed apart in the source
[4] = biological target: Ste5 minimal scaffold domain (Ste5-ms), fluorescein-labeled (S. cerevisiae) (UniProt P32917); test: fluorescence polarisation

Sequence of UniProt P16892 (P16892 whole entry, the tested form may be a part): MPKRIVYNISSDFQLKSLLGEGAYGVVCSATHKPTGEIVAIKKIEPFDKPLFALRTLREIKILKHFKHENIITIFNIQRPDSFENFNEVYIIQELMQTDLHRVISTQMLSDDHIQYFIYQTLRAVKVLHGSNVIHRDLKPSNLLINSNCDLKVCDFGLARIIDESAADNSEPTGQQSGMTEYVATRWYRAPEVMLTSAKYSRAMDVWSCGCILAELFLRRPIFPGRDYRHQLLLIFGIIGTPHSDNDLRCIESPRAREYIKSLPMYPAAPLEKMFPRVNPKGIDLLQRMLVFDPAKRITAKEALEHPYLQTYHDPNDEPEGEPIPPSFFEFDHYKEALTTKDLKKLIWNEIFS
Sequence of UniProt P14681 (P14681 whole entry): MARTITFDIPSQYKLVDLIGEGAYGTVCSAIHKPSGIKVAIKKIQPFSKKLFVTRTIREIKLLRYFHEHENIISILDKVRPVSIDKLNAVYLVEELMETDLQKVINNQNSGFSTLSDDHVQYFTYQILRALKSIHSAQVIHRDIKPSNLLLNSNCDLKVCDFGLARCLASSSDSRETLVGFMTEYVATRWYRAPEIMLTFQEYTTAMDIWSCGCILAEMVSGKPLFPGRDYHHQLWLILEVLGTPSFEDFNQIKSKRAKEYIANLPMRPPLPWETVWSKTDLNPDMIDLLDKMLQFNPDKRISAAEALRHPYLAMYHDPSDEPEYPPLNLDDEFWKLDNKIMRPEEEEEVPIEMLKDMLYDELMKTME

Ste7 docking motif (from UniProt P06784)
Kd [1]: 100 nM
Kd [2]: 100 nM

Ste5 288-316 (from UniProt P32917)
Kd [3]: 1000 nM

MAPKK Ste7 (from UniProt P06784 1-515) (enzyme)
Kd [4]: 75 nM
